According to patent US20150258192A1, “COMPOSITIONS AND METHODS FOR PREVENTING OR TREATING CHRONIC LUNG ALLOGRAFT DYSFUNCTION (CLAD) AND IDIOPATHIC PULMONARY FIBROSIS (IPF)” (priority 2014, published 2015):
No end group written: not given here.

Molecular target: T1, SGK2(h) (Homo sapiens, UniProt Q9HBY8)
T1 construct: purchased Millipore
T1 sequence (Q9HBY8 1-367): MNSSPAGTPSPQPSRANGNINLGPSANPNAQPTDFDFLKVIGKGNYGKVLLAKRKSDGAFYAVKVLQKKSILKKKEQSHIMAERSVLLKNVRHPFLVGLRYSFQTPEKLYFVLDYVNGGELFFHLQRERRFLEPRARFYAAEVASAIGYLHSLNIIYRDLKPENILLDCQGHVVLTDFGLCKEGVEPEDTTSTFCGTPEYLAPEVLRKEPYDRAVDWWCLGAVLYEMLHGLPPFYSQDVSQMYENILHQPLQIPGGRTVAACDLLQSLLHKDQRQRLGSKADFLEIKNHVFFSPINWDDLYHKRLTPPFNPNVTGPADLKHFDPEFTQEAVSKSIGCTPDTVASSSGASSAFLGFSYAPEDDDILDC
Assay: Kinase Profiling Assay
Assay type: biochemical
Details: peptide 100 μM
Summary of the method: (§1)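 Duplicate wells; [radiolabeled] ATP phosphate onto cationic substrate; filter capture (negatively charged membrane); scintillation count; % of 100% activity control. Selectivity screen of MK2 peptide inhibitors, 266 human kinases.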

In order of rising “% activity” value:
1. HRRIKAWLKKIKALARQLGVAA (Mammal) [MMI-0500]  -1%
2. FAKLAARLYRKALARQLGVAA [MMI-0300]  56%
3. KAFAKLAARLYRKALARQLGVAA [MMI-0400]  98%

Molecular target: T2, NEK3(h) (Homo sapiens, UniProt P51956)
T2 construct: purchased Millipore
T2 sequence (P51956 1-506): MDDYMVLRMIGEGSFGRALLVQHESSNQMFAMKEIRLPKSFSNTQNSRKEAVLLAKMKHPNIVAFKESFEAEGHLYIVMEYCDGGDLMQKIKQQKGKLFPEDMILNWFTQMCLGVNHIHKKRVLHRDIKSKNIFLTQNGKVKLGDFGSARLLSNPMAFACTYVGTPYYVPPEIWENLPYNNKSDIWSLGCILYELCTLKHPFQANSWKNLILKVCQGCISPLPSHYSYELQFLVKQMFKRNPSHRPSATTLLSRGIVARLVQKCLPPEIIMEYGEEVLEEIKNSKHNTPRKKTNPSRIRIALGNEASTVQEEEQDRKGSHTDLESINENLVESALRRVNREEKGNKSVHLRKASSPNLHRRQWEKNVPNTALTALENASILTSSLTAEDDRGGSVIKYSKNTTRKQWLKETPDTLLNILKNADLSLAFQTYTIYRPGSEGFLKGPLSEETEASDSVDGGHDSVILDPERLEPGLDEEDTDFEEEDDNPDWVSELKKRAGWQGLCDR
Assay: Kinase Profiling Assay
Assay type: biochemical
Details: peptide 100 μM
Summary of the method: as §1

In order of rising “% activity” value:
1. HRRIKAWLKKIKALARQLGVAA (Mammal) [MMI-0500]  20%
2. KAFAKLAARLYRKALARQLGVAA [MMI-0400]  85%
3. FAKLAARLYRKALARQLGVAA [MMI-0300]  92%
4. YARAAARQARAKALARQLGVAA [MMI-0100]  100%
5. YARAAARQARAKALNRQLGVA (Mammal) [MMI-0200]  100%

Molecular target: T3, JNK1α1(h) (Homo sapiens, UniProt P45983)
T3 construct: purchased Millipore
T3 sequence (P45983 1-384 isoform P45983-2): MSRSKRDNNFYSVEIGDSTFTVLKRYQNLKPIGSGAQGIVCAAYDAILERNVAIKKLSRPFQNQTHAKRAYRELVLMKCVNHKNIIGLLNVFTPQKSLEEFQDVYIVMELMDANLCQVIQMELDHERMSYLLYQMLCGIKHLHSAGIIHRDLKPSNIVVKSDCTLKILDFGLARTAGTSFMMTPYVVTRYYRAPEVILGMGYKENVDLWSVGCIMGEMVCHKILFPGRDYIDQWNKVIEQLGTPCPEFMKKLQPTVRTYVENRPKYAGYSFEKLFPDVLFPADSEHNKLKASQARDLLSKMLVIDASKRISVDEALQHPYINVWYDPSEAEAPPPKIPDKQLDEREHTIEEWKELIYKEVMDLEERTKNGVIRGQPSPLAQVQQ
Assay: Kinase Profiling Assay
Assay type: biochemical
Details: peptide 100 μM
Summary of the method: as §1

In order of falling “% activity” value:
1. KAFAKLAARLYRKALARQLGVAA [MMI-0400]  98%
2. FAKLAARLYRKALARQLGVAA [MMI-0300]  97%
3. YARAAARQARAKALARQLGVAA [MMI-0100]  91%

Molecular target: T4, IKKα(h) (Homo sapiens, UniProt O15111)
T4 construct: purchased Millipore
T4 sequence (O15111 1-745): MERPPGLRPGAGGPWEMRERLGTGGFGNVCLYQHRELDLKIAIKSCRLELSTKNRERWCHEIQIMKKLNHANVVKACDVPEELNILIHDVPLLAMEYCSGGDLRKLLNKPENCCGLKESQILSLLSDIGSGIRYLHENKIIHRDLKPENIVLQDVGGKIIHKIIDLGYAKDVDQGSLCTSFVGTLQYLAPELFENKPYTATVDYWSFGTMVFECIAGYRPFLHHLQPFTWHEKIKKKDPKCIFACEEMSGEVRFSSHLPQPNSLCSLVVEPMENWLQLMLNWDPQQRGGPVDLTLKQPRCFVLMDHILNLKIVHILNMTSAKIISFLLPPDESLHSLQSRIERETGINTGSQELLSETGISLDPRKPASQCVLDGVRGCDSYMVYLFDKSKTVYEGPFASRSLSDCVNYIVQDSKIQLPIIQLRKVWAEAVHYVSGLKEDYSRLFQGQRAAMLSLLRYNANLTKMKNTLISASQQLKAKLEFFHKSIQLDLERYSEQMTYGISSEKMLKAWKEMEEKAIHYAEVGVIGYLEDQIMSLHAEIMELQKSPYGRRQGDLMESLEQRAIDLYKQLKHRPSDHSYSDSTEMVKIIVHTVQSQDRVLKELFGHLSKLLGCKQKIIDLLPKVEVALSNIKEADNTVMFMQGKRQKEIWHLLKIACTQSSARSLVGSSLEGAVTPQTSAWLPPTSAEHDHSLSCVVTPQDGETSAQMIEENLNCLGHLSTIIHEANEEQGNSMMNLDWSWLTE
Assay: Kinase Profiling Assay
Assay type: biochemical
Details: peptide 100 μM
Summary of the method: as §1

In order of falling “% activity” value:
1. YARAAARQARAKALARQLGVAA [MMI-0100]  108%
2. FAKLAARLYRKALARQLGVAA [MMI-0300]  93%
3. KAFAKLAARLYRKALARQLGVAA [MMI-0400]  87%
4. HRRIKAWLKKIKALARQLGVAA (Mammal) [MMI-0500]  50%

Molecular target: Aurora-B(h) (Homo sapiens, UniProt Q96GD4)
Sequence (Q96GD4 whole entry): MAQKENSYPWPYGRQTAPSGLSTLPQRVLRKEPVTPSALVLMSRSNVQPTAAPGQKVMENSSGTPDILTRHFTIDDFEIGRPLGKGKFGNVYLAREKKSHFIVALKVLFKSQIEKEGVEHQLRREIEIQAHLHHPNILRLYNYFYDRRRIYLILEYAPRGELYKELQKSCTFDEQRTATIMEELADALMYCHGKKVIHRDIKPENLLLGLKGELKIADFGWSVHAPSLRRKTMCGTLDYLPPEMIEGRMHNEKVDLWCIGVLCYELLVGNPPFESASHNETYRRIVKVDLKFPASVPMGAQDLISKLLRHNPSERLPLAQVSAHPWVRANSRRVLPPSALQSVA
Assay: Kinase Profiling Assay
Assay type: biochemical
Details: peptide 100 μM
Summary of the method: as §1

In order of rising “% activity” value:
1. HRRIKAWLKKIKALARQLGVAA (Mammal) [MMI-0500]  5%
2. FAKLAARLYRKALARQLGVAA [MMI-0300]  128%
3. KAFAKLAARLYRKALARQLGVAA [MMI-0400]  150%
4. YARAAARQARAKALNRQLGVA (Mammal) [MMI-0200]  166%

Molecular target: T5, PAK2(h) (Homo sapiens, UniProt Q13177)
T5 construct: purchased Millipore
T5 sequence (Q13177 whole entry): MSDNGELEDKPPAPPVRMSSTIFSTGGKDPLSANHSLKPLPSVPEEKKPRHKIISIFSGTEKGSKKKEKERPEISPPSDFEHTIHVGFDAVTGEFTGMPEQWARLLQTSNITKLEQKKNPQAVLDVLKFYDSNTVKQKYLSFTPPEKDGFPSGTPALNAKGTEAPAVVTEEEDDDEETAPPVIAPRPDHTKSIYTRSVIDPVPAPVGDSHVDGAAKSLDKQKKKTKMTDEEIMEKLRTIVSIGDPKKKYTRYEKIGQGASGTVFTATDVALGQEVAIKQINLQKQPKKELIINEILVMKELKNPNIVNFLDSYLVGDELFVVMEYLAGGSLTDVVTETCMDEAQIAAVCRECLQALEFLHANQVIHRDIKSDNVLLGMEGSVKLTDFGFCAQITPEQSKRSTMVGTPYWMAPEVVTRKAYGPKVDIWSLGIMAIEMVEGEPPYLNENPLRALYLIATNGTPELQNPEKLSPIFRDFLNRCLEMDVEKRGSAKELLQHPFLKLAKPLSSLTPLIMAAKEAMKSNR
Assay: Kinase Profiling Assay
Assay type: biochemical
Details: peptide 100 μM
Summary of the method: as §1

In order of rising “% activity” value:
1. HRRIKAWLKKIKALARQLGVAA (Mammal) [MMI-0500]  44%
2. KAFAKLAARLYRKALARQLGVAA [MMI-0400]  59%
3. FAKLAARLYRKALARQLGVAA [MMI-0300]  65%
4. YARAAARQARAKALNRQLGVA (Mammal) [MMI-0200]  69%
5. YARAAARQARAKALARQLGVAA [MMI-0100]  71%

Molecular target: PTK5(h) (Homo sapiens, UniProt P42685)
Sequence (P42685 whole entry): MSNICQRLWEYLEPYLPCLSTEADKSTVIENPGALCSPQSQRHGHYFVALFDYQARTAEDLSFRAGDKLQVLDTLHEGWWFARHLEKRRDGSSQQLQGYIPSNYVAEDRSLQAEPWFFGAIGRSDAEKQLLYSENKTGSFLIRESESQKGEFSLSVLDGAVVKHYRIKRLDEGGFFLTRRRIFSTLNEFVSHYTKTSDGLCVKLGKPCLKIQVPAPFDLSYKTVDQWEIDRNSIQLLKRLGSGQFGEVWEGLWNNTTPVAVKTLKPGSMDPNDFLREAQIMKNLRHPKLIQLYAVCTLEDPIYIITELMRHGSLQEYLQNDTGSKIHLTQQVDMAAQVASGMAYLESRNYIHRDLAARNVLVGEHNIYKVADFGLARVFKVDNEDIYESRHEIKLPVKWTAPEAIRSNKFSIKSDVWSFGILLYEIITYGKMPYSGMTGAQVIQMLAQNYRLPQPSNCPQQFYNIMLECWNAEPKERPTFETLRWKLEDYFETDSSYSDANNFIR
Assay: Kinase Profiling Assay
Assay type: biochemical
Details: peptide 100 μM
Summary of the method: as §1

In order of rising “% activity” value:
1. HRRIKAWLKKIKALARQLGVAA (Mammal) [MMI-0500]  96%
2. YARAAARQARAKALNRQLGVA (Mammal) [MMI-0200]  108%
3. KAFAKLAARLYRKALARQLGVAA [MMI-0400]  129%
4. FAKLAARLYRKALARQLGVAA [MMI-0300]  132%
5. YARAAARQARAKALARQLGVAA [MMI-0100]  135%

Molecular target: PKCα(h) (Homo sapiens, UniProt P17252)
Assay: Kinase Profiling Assay
Assay type: biochemical
Details: peptide 100 μM
Summary of the method: as §1

In order of falling “% activity” value:
1. YARAAARQARAKALNRQLGVA (Mammal) [MMI-0200]  100%
2. FAKLAARLYRKALARQLGVAA [MMI-0300]  89%
3. KAFAKLAARLYRKALARQLGVAA [MMI-0400]  86%
4. HRRIKAWLKKIKALARQLGVAA (Mammal) [MMI-0500]  3%

Molecular target: FGFR3(h) (Homo sapiens, UniProt P22607)
Sequence (P22607 23-806): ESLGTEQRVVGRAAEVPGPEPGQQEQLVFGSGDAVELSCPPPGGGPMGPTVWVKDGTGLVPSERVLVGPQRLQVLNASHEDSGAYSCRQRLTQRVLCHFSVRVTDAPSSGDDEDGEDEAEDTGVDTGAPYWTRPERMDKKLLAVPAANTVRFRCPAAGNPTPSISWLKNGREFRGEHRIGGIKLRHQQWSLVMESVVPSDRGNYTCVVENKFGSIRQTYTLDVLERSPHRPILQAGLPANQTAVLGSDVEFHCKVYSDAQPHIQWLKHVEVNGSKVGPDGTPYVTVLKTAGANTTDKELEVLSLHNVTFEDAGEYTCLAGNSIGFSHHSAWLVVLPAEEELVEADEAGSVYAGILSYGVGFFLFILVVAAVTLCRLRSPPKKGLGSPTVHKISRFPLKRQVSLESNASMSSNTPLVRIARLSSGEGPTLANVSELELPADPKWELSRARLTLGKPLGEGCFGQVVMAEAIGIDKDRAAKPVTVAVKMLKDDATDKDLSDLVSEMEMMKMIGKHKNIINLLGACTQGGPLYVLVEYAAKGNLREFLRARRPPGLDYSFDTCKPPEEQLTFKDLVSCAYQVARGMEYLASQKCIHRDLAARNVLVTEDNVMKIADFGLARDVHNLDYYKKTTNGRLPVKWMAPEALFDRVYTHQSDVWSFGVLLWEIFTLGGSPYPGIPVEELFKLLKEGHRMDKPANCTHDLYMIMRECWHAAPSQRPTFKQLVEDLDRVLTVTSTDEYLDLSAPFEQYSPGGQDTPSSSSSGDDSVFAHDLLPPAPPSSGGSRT
Assay: Kinase Profiling Assay
Assay type: biochemical
Details: peptide 100 μM
Summary of the method: as §1

In order of rising “% activity” value:
1. KAFAKLAARLYRKALARQLGVAA [MMI-0400]  0%
2. HRRIKAWLKKIKALARQLGVAA (Mammal) [MMI-0500]  10%
3. YARAAARQARAKALARQLGVAA [MMI-0100]  73%
4. YARAAARQARAKALNRQLGVA (Mammal) [MMI-0200]  208%

Molecular target: T6, MST1(h) (Homo sapiens, UniProt Q13043)
T6 construct: purchased Millipore
T6 sequence (Q13043 1-487): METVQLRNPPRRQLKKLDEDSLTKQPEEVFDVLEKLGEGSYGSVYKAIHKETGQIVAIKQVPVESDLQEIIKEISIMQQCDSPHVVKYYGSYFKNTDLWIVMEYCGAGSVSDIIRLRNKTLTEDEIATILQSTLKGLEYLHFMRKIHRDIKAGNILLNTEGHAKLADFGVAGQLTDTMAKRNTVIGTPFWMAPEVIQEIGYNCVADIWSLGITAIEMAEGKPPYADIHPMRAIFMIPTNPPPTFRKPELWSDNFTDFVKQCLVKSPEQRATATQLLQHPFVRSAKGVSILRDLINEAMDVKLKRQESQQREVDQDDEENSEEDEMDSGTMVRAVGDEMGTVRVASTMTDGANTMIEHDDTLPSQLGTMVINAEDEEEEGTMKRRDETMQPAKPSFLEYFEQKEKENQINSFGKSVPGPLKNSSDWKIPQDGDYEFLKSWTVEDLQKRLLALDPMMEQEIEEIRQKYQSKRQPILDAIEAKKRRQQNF
Assay: Kinase Profiling Assay
Assay type: biochemical
Details: peptide 100 μM
Summary of the method: as §1

In order of falling “% activity” value:
1. YARAAARQARAKALNRQLGVA (Mammal) [MMI-0200]  72%
2. FAKLAARLYRKALARQLGVAA [MMI-0300]  14%
3. KAFAKLAARLYRKALARQLGVAA [MMI-0400]  6%
4. HRRIKAWLKKIKALARQLGVAA (Mammal) [MMI-0500]  3%

Molecular target: ROCK-II(h) (Homo sapiens, UniProt O75116)
Sequence (O75116 whole entry): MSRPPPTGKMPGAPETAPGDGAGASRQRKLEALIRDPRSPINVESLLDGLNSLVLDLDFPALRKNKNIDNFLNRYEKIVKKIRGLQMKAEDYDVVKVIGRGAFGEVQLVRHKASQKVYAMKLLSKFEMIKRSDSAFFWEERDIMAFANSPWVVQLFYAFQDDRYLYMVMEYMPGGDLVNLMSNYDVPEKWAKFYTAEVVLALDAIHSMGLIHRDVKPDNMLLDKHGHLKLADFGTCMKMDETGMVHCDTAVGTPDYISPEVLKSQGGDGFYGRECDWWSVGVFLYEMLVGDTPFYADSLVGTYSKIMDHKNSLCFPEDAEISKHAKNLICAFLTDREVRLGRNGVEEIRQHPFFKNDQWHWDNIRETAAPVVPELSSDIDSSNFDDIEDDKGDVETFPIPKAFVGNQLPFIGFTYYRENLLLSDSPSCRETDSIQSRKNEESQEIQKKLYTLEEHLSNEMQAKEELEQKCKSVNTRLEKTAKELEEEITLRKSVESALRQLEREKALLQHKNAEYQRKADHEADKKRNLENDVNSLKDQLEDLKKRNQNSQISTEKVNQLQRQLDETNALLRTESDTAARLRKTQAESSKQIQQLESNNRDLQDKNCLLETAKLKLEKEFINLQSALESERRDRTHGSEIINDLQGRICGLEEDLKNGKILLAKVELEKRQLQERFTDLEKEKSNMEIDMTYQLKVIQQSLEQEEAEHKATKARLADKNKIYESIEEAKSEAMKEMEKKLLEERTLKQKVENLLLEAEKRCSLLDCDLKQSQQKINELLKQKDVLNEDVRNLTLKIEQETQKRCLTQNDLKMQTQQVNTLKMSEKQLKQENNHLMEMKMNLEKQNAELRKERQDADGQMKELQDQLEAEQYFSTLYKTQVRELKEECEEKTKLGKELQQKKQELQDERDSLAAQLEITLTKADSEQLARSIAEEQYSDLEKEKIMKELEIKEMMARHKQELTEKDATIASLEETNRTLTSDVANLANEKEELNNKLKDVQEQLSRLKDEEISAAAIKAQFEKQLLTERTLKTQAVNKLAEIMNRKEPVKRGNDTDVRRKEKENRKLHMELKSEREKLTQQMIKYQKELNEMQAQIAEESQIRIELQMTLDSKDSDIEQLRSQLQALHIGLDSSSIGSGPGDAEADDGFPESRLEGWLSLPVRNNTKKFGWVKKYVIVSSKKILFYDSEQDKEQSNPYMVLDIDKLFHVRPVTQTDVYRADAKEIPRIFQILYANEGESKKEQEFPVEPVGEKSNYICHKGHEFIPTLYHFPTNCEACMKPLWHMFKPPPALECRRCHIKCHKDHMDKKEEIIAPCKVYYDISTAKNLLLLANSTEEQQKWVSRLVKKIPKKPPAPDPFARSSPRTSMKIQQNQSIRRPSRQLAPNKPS
Assay: Kinase Profiling Assay
Assay type: biochemical
Details: peptide 100 μM
Summary of the method: as §1

In order of falling “% activity” value:
1. YARAAARQARAKALNRQLGVA (Mammal) [MMI-0200]  85%
2. KAFAKLAARLYRKALARQLGVAA [MMI-0400]  77%
3. FAKLAARLYRKALARQLGVAA [MMI-0300]  74%
4. HRRIKAWLKKIKALARQLGVAA (Mammal) [MMI-0500]  2%

Molecular target: T7, JNK2α2(h) (Homo sapiens, UniProt P45984)
T7 construct: purchased Millipore
Assay: Kinase Profiling Assay
Assay type: biochemical
Details: peptide 100 μM
Summary of the method: as §1

In order of falling “% activity” value:
1. FAKLAARLYRKALARQLGVAA [MMI-0300]  98%
2. KAFAKLAARLYRKALARQLGVAA [MMI-0400]  96%
3. HRRIKAWLKKIKALARQLGVAA (Mammal) [MMI-0500]  81%
